Source: patent publication US20190352408A1 (US Dept. of Health and Human Services, published 2019)

T1: recombinant soluble FLT3 (human, UniProt P36888 27-541, limits assumed)
T1 construct: For the ELISA it says only 'recombinant soluble FLT3'; also called soluble recombinant FLT3; Fms-like tyrosine kinase 3
T1 sequence (looked up): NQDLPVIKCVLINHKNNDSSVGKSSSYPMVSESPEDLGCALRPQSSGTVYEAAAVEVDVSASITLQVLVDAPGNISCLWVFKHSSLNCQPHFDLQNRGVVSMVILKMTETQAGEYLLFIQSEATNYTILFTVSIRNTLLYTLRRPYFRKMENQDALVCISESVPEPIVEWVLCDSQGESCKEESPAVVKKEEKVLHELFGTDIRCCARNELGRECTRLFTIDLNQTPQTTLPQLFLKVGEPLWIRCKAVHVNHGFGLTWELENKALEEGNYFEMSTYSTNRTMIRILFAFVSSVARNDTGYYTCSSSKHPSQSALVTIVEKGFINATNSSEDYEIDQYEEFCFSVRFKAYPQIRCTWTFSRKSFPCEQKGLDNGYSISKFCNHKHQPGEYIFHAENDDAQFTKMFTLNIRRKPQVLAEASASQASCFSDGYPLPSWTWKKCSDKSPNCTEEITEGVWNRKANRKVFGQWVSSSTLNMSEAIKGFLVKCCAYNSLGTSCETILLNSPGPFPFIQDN

T2: cell-surface FLT3 (UniProt P36888 27-993, limits assumed)
T2 construct: whole, on cells; also called FLT3 on FLT3-positive RS4; 11 cells
T2 sequence (looked up): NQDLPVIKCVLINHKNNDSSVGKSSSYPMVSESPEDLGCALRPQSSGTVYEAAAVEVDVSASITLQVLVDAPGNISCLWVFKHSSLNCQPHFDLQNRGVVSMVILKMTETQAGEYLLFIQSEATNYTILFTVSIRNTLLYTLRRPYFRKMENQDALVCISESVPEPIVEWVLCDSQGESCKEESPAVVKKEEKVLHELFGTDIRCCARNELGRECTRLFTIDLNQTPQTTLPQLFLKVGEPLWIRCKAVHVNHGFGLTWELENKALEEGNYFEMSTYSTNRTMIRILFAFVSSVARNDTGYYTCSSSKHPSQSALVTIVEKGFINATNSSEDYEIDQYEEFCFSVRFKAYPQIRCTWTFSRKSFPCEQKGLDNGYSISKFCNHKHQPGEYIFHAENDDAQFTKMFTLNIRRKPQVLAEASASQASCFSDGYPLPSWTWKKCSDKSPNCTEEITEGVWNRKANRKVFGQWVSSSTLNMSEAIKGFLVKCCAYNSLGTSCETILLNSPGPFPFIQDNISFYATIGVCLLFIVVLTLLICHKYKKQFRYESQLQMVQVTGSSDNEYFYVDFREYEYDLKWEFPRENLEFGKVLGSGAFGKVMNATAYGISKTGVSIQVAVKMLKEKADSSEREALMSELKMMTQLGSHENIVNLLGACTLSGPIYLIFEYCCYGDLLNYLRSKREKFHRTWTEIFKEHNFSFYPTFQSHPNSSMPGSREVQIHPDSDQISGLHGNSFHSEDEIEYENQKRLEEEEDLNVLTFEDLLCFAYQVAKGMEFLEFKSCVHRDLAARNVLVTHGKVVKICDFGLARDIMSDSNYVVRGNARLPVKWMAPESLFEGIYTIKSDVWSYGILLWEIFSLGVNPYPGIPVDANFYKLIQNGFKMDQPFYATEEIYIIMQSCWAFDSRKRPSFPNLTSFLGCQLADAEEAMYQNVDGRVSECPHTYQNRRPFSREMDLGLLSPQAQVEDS


What was measured:
recombinant soluble FLT3 [1] = biological target: T1, recombinant soluble FLT3; assay: ELISA on recombinant soluble FLT3 (FIG. 1A)
cell-surface FLT3 = biological target: T2, cell-surface FLT3; assay: flow cytometry on RS4;11 cells, anti-His-PE detection
recombinant soluble FLT3 [2] = biological target: T1, recombinant soluble FLT3; assay: ELISA on recombinant soluble FLT3 (FIG. 1B)
recombinant soluble FLT3 [3] = biological target: T1, recombinant soluble FLT3; assay: ELISA on recombinant soluble FLT3 (FIG. 1C)

Binder	binding result (recombinant soluble FLT3 [1])	binding result (cell-surface FLT3)	binding result (recombinant soluble FLT3 [2])	binding result (recombinant soluble FLT3 [3])
m1006 (antibody, V domains shown, Fully human; isolated from a phage display Fab library) VH: EVQLVESGGGLVQPGGSLRLSCAASGFTFSSYGMHWVRQAPGKGLEWVAVISYDGSNKYYADSVKGRFTISRDNSKNTLYLQMNSLRAEDTAVYYCANLAPWAAYWGQGTLVTVSS VL: not shown	binds	binds		
m1007 (antibody, V domains shown, Fully human; isolated from a phage display Fab library) VH: EVQLVESGGGVVQPGGSLRLSCAASGFTFSSYGMHWVRQAPGKGLEWVAVISYDGSNKYYADSVKGRFTISRDNSKNTLYLQMNSLRAEDTAVYYCANLAPWAAYWGQGTLVTVSS VL: not shown	binds	binds		
m1008 (scFv, Fully human; isolated from a phage display scFv library; Detected with anti-His-PE) scFv: QVQLQESGPGLVKPSQTLSLTCTVSGGSISSSGYYWSWVRQSPGKGLEWIGEIYQSGNTNYNPSLKSRVTISVDKPKNQLSLKLGSVTAADTAVYYCARGGSYYDYWGQGTLVTVSSGGGGSGGGGSGGGGSQSVVTQPPSVSAAPGQKVTISCSGSNSNIGNNYVSWYQQLPGTAPKVLIYDNNVRPSGIPDRFSGSKSGTSATLGITGLQTGDEADYYCETWDSSLNVGMFGGGTQLIVL		binds	binds	
m1012 (VHH, Human VH single-domain antibody (not camelid) from a phage display VH domain library; Detected with anti-His-PE; also called single-domain antibody m1012) VHH: EVQLVESGGGLVQPGGSLRLSCAASRFYFSGYEMSWVRQAPGKGLEWVSAISGSGGSTYYADSVKGRFTISRDNSKNTLYLQMNSLRAEDTAVYYCARRVVGAKLYFQHWGQGTLVTVSS		binds		binds
m1009 (scFv, Fully human; isolated from a phage display scFv library; Detected with anti-His-PE) scFv: EVQLVQSGGGLVQPGGSLRLSCAASGFTFSSYAMSWVRQAPGKGLEWVSGISWNSGSIGYADSVKGRFTISRDNAKNSLYLQMNSLRAEDTALYYCAKVGGGGAFDIWGQGTMVTVSSGGGGSGGGGSGGGGSQSVLTQPPSVSAAPGQKVTISCSGSSSSIGDNYVSWYQQVPGTAPKLLIYGNNKRPSGIPDRLSGSKSGTSATLGITGLQTGDEADYYCGTWDNSLGGVFGGGTKLTVL		binds	binds	
